Test results: paper PMC12279963 (Nature Communications, 2025)
Substitutions are numbered along the chain they refer to. Numbers in names are those of the source.

T1: EcPBP1b^82-804 (pSI199), TM domain substituted with an N-terminal cysteine acylation site, ALFA-tagged (E. coli) (UniProt P02919)
T1 sequence (P02919 82-804, looked up): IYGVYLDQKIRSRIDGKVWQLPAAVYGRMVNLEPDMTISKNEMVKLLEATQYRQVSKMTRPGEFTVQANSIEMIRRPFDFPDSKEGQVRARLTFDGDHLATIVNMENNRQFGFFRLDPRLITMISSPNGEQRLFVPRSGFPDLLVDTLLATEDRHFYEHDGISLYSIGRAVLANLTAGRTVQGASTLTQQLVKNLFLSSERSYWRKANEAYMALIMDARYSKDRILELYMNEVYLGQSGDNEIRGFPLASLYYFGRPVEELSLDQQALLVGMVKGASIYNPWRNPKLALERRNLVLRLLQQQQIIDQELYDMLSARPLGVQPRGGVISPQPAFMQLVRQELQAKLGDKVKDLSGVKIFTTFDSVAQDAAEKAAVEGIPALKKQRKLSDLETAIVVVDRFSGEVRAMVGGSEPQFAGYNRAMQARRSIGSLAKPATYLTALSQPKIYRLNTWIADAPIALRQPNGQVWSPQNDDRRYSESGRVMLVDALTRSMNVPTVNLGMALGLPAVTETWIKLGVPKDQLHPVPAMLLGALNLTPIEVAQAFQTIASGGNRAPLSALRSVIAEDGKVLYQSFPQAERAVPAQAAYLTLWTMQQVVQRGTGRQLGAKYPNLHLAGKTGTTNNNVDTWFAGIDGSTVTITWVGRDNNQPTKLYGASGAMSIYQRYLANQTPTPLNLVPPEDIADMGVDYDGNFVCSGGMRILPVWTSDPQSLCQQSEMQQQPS

T2: EcPBP1b^C794A (pSI233), truncation 58-804, Cy3-labelled at C776 (E. coli, UniProt P02919 58-804, C794A, Cy3 (sulfo-Cy3-maleimide) on C776)
T2 sequence (looked up): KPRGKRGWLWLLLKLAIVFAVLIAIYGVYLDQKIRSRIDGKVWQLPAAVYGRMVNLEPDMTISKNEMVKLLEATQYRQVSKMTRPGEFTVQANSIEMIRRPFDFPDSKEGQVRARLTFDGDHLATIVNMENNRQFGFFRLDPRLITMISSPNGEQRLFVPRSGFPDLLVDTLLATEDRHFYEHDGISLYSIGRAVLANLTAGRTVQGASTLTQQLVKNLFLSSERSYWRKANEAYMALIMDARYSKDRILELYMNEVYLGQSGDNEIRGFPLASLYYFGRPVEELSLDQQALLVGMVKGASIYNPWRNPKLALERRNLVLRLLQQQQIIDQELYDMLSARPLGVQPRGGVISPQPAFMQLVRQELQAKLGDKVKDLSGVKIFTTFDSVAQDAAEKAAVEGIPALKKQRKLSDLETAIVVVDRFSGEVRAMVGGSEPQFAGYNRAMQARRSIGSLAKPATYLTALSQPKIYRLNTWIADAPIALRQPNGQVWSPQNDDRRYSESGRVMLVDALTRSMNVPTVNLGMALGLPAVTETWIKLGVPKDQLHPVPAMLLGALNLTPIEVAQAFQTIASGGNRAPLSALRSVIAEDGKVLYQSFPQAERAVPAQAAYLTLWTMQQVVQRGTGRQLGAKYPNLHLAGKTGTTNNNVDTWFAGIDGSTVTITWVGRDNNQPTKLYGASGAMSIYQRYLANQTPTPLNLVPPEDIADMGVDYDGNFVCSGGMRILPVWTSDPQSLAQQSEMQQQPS

B1: LpoB^64-213 (pSI259), wild type (domain or fragment)
chain: HEDQTAPPAPHIRHYDWNGAMQPMVSKMLGADGVTAGSVLLVDSVNNRTNGSLNAAEATETLRNALANNGKFTLVSAQQLSMAKQQLGLSPQDSLGTRSKAIGIARNVGAHYVLYSSASGNVNAPTLQMQLMLVQTGEIIWSGKGAVSQQ
B2: LpoB^64-213 S157V Y178W (domain or fragment)
chain: B1 chain with S94V, Y115W
B3: LpoB^64-213 A164S S180I S157V (combined) (domain or fragment)
chain: B1 chain with S94V, A101S, S117I
B4: EcLpoB^S211C (pSI204), truncation 21-213, Cy5-labelled (natural protein, E. coli, UniProt P0AB38 21-213, looked up)
chain: VGQREPAPVEEVKPAPEQPAEPQQPVPTVPSVPTIPQQPGPIEHEDQTAPPAPHIRHYDWNGAMQPMVSKMLGADGVTAGSVLLVDSVNNRTNGSLNAAEATETLRNALANNGKFTLVSAQQLSMAKQQLGLSPQDSLGTRSKAIGIARNVGAHYVLYSSASGNVNAPTLQMQLMLVQTGEIIWSGKGAVCQQ
modifications: Cy5 (sulfo-Cy5-maleimide) on C211

Legend:
[1] = biological target: T1, EcPBP1b^82-804 (pSI199), TM domain substituted with an N-terminal cysteine acylation site, ALFA-tagged (E. coli); assay: BLI
[2] = biological target: T2, EcPBP1b^C794A (pSI233), truncation …; assay: FRET or BRET

Binder | Kd [1] [nM] | Kd [2] [nM]
B1 | 915 | –
B2 | 24 | –
B3 | 9 | –
B4 | – | 900
